{"source": "patent US10047345B2", "about": "“Culturing of mesenchymal stem cells with FGF4 and nicotinamide” (Gamida-Cell Ltd., priority 2012, dated 2018)", "molecules": {"B1": {"name": "FGF4: Fibroblast growth factor 4, the FGF4 gene product, a 176 AA long protein (protein, UniProt P08620 31-206, looked up)", "Fibroblast growth factor 4": "APTAPNGTLEAELERRWESLVALSLARLPVAAQPKEAAVQSGAGDYLLGIKRLRRLYCNVGIGFHLQALPDGRIGGAHADTRDSLLELSPVERGVVSIFGVASRFFVAMSSKGKLYGSPFFTDECTFKEILLPNNYNAYESYKYPGMFIALSKNGKTKKGNRVSPTMKVTHFLPRL"}, "B2": {"name": "PDGF-BB: platelet derived growth factor, homodimer, subunit B (protein, UniProt P01127 82-190, looked up)", "Platelet-derived growth …": "SLGSLTIAEPAMIAECKTRTEVFEISRRLIDRTNANFLVWPPCVEVQRCSGCCNNRNVQCRPTQVQLRPVQVRKIEIVRKKPIFKKATVTLEDHLACKCETVAAARPVT"}, "B3": {"name": "BMP-3: member of the transforming growth factor beta family (protein, UniProt P12645 363-472, looked up)", "Bone morphogenetic protein 3": "QWIEPRNCARRYLKVDFADIGWSEWIISPKSFDAYYCSGACQFPMPKSLKPSNHATIQSIVRAVGVVPGIPEPCCVPEKMSSLSILFFDENKNVVLKVYPNMTVESCACR"}}, "key": {"MSCs": {"system": "MSCs", "details": "cited from earlier work"}, "mesenchymal stem cells [1]": {"system": "mesenchymal stem cells", "test": "Cell size of cultured MSCs (Cedex cell counter)", "assay_type": "cell-based, human", "details": "between days 10-32 of culture", "description": "Cell size was measured using Cedex Automated Cell Counter (Innovatis). The cells were diluted 1:2 in Trypan Blue (Sigma) and cell size was measured automatically under microscope.\n(§1) Mesenchymal stem cells were selected and cultured in the presence of particular growth factors (basic fibroblast growth factor—bFGF, heparin binding epidermal growth factor—HB-EGF, fibroblast growth factor 4—FGF-4 and platelet derived growth factor, homodimer, subunit B, PDGF-BB) in the presence and absence of nicotinamide for three or four passages and the number and size of the cells was calculated."}, "[2]": {"system": "umbilical cord-derived CD133+ hematopoietic stem cells", "test": "Differentiation and proliferation of ex-vivo cultured hematopoietic stem cells (FACS surface markers)", "assay_type": "cell-based", "description": "Umbilical cord-derived hematopoietic stem cells were isolated using CD133 microbeads and CliniMACS® separator (Miltenyi, Inc. Auburn, Calif.), and cultured for 3 weeks in MEMα supplemented with 50 ng/ml TPO, IL6, SCF, Flt3, fetal bovine serum, ±2.5 or 5 mM nicotinamide, and/or 10, 50 or 200 ng/ml FGF4. After 3 weeks in culture the cells were stained for surface markers (CD38, CD133, CD33, CD19) and the cell populations determined by FACS analysis (see below). Results are expressed as percentage of total population assayed.\n(§2) At different time points the cells were detached with 0.25% trypsin-EDTA. The cells were washed with a PBS solution containing 1% BSA, and stained (at 4° C. for 30 min) with either fluorescein isothiocyanate (FITC) or phycoerythrin (PE)-conjugated antibodies: 105 PE, 105 FITC (Serotec, Raleigh, N.C.), 45 FITC, 14 FITC, HLA-DR FITC, 106 PE, 31 PE (BD, Franklin Lakes N.J.), 34 PE (Dako, Glostrup, Denmark), 73 PE, HLA class1 PE, 49b PE (Pharmingen, San Diego, Calif.), 29 PE, 44 PE, 54 FITC, 59 PE, 90 PE (BioLegend, San Diego, Calif.). CD133—(AC141) PE (Miltenyi, Auburn, Calif.), CD38 FITC (Dako, Glostrup, Denmark), CD19 FITC (BD Biosciences, Franklin Lakes N.J.), CD33 FITC (BD Bioscience, Franklin Lakes N.J.).\n(§3) The cells were then washed in the above buffer and analyzed using a FACScalibur® flow cytometer (Becton Dickinson, Franklin Lakes N.J.). The cells were passed at a rate of up to 1000 cells/second, using a 488 nm argon laser beam as the light source for excitation. Emission of 10000 cells was measured using logarithmic amplification, and analyzed using the CellQuest software (Becton Dickinson). Cells stained with FITC- and PE-conjugated isotype control antibodies were used to determine background fluorescence.\nUmbilical cord-derived CD133+ hematopoietic stem cells were isolated and cultured for 3 weeks in medium supplemented with early-acting growth factors and fetal bovine serum, nicotinamide and/or FGF4. After 3 weeks in culture the cells were stained for surface markers (CD38, CD133, CD19) and the cell populations determined by FACS analysis. Cell proliferation was assessed by counting total cells at three weeks."}, "mesenchymal stem cells [3]": {"system": "mesenchymal stem cells", "test": "Percent of MSC (CD105+CD45-) by FACS", "assay_type": "cell-based, human", "details": "NAM 5 mM, FGF4 50 ng/ml, PDGF-BB 50 ng/ml", "description": "as §2, with “CD133—(AC141) PE (Miltenyi, Auburn, Calif.), CD38 FITC (Dako, Glostrup, Denmark), CD19 FITC (BD Biosciences, Franklin Lakes N.J.), CD33 FITC (BD Bioscience, Franklin Lakes N.J.).” left out\nas §3, with “The cells were passed at a rate of up to 1000 cells/second, using a 488 nm argon laser beam as the light source for excitation.” left out\nas §1"}}, "note": "Entries after “also recorded” stand apart in the source; their conditions may differ."}
{"molecule": "EGF: Epidermal growth factor", "values": [{"measurement": "increase in the number of colony-forming units of MSCs", "setting": "MSCs; Tamama et al. 2010", "result": 25, "unit": "%"}]}
{"molecule": "B1", "values": [{"measurement": "cell diameter of cultured MSCs", "setting": "mesenchymal stem cells [1]", "result": "greater than 20 μm"}, {"measurement": "degree of differentiation of hematopoietic progenitor cells (CD38 and CD133-expressing fraction)", "setting": "[2]; 3 weeks culture, nicotinamide 2.5 or 5 mM, FGF4 10 to 200 ng/ml", "result": "without any effect on the degree of differentiation; also recorded: neither improved nor reduced"}, {"measurement": "total cell proliferation in hematopoietic cultures", "setting": "[2]; 3 weeks, FGF4 with or without nicotinamide, results not shown", "result": "without any discernible effect"}, {"measurement": "fraction of undifferentiated early progenitors (CD38-CD133+)", "setting": "[2]; 3 weeks, FIG. 35", "result": "absence of any significant effect"}, {"measurement": "differentiation (CD38+ cells)", "setting": "[2]; 3 weeks, FIG. 36", "result": "absence of any significant effect"}, {"measurement": "myeloid lineage differentiation (CD33+ cells)", "setting": "[2]; 3 weeks, FIG. 37", "result": "moderate enhancement"}, {"measurement": "lymphoid lineage differentiation (CD19+ cells)", "setting": "[2]; 3 weeks, FIG. 38", "result": "absence of any significant effect"}, {"measurement": "abundance of committed myeloid or lymphoid cells (CD33, CD19)", "setting": "[2]; three week cultures", "result": "without any effect"}]}
{"molecule": "B2", "values": [{"measurement": "fraction of MSC (CD105+CD45-) versus cells other than MSCs in the culture", "setting": "mesenchymal stem cells [3]", "result": "contaminated with a higher fraction of cells other than MSCs"}]}
{"molecule": "B3", "values": [{"measurement": "increase of MSC proliferation", "setting": "MSCs; Stewart et al. 2010", "result": "threefold"}]}
